Data published in article PMC8196545 (Cell reports, 2021).
Changes are numbered by the printed parent chain.

B1: c24251 (antibody, V domains shown)
VH: QVQLQESGPGLVKPSETLSLTCTVSGASINSYYWSWIRQTPGKGLEWIGFISNAGTTKYNPSLQSRVTISRDTSKNQVSLHLTSVTAADTAVYHCARDGLPGSNWGYNYAGMDVWGQGTTVTVTS
VL: DIQMTQSPSTLSASVGDRVTITCRTSQPISVWLAWYQQKPGKAPKVLIYRASSLEDGVPSRFSGSGSGTEFTLTISSLQPDDFATYFCQHYNTFSRTFGQGTKVEIK
B2: c8540 (antibody, V domains shown)
VH: QVQLLQSGPEVKKPGASVKVSCKTSGYTFTSYAITWVRQAPGEGLEWLGWISPHSRTAKYAQKFQGRLTMTTDTSTATAYMDLRSLSPDDTAVYYCARRIYDWDIERARFDPWGQGTLVAVSS
VL: QSVLTQPPSVSADPGQRVTISCSGSSSNIGKNFVSWYQQLPGTAPKLVIYDNDRRPSGIPDRFSGSKSGTSATLGITGLQTGDEAAYYCATWDSGLNDGPVFGGGTRLTVL
B3: c9674 (antibody, V domains shown)
VH: EVKLVESGGTLVKPGGSLRISCAASGFRFSSYSFNWVRQAPGKGPEWVAYISASPLGRSKVNYAHSVEGRFSVSRDNDAKSLHLQMSGLTRDDTAVYHCARAPWYEGNFNYNYAMDVWGQGTTVIVSS
VL: GVVLTQSPGTLSLSPGERVTVSCRASQSLSRDSLVWYQQKPGQPPRLLIYGASNRVPGIPDRFSGDGSGTQFTLTINRLEPEDFGVYYCQSYGHSPLYSFGQGTKLEIK
B4: c11465 (antibody, V domains shown)
VH: EVKLVESGGTQVQPGGSLRISCVGSGFRFSSYSFNWVRQAPGKGPEWVAYISASPFGRSKVTYAHSVEGRFIVSRDNDANSLYLQMTGLTRDDTAVYHCARAPYYEGNFQYNYAMDVWGLGTTVIVSS
VL: B3 VL with V19A, S30T, A52T, D66G, N77S, G85A, H94L, E107D
B5: c13217 (antibody, V domains shown)
VH: QVQLVESGGGVVQPGKSLRLSCTASGFDVGHFTMHWVRQAPGKGLEWVGLTRTDGNTEEYADSVKGRFAISRDNSKNTLSLQLNNVRAEDTAVYYCAKERVPLTAYAFDYWGQGTLVTVSS
VL: DIQMTQSPSSLSASVGDRVTITCRSSERIRTYVNWYQQKPGQAPQLLIYAASTLQNGVPSRFSGSGSGTVFTLTVNSLQPADFATYSCQQSYSLPWTFGQGTRVEVN
B6: c5237 (antibody, V domains shown)
VH: QVQLQESAPRLVKTSETLSLTCTVSGSHFYPYFYSWIRQSPGGKLQWIGRMYSTTGSMRTNPSLHTRVGMPLDHSRSQIGLTMSSMTAADTGIYYCVRDIMREFDSVDGSGGIYGGVDVWGRGTTVTVSS
VL: QFVLTQPPSVSGSPGKTVIISCTRSGGTFARNSVRWYLQRPGEIPTTVFFDGNRRASGIPDRFSASIGVSSTSASLTISGLTPEDEADYYCESSDGGHHVVFGGGTKVTVL
B7: c11422 (antibody, V domains shown)
VH: EARLVESGGGRVQPGGSLRLSCEASGFRFSSYSFNWVRQSPGKGLEWLAKISASPFGRSQINYAHSVEGRFIISRDNDGNSLRLQMNDLRGADTGVYYCARAPWQERNLDYNYAMDVWGQGTTVIVSS
VL: ELVLTQSPGTLSLSPGERATVSCRASQSLRRDSLAWYQQKPGHSPRLLIFAASNRVPGIPYRFSGSGSGTQFTLTIDKMEPEDFAVYYCQTYGSSPLYTFGQGTKLDIN
B8: c11405 (antibody, V domains shown)
VH: B7 VH with N35T, I61V, I72T, G79R, N108S
VL: B7 VL with S66T, D77E, T91S
B9: c29323 (antibody, V domains shown)
VH: QVQLQESGPGLVRPSETLSLTCVVSGDSITRNYWSWLRQPPGKTLEWIGFMYDSGTVNYNPSLQSRVSISVDTSNNQFFLRLTSVTAADTAVYYCARHPSRGSDYDSATGDTYYYYYGMDVWGPGTSVVVSS
VL: DIQLTQSPPSLSASVGDRIVISCRATRDIGTSLNWYQQKPGQSPKLLIVAASTLESGVPSRFSAAGSATHFTLTISALQHDDVATYFCQQYLSLPLTFSGGTRVDLR
B10: c8395 (antibody, V domains shown)
VH: AVQFLQSGAEVKKPGESLKISCQDRGYGFNDYWIAWVRQMPGKGLEWMGLIYPDDSDTRYSPSFQGQVTILADKSINTAYLQWNSLKASDSAIYYCARLMVVDERSENTFDIWGQGTVVTVFS
VL: SSGLAQSPSLSVSPGQTATVTCSGDPLVNHFASWYQQQPGQSPILVIYQDNQRPSGIPERFSGSKTGNTATLTIGETQAADEADYFCQSWDITTAGMIFGGGTKLTVL
B11: c24148 (antibody, V domains shown)
VH: QVEVQESGPGLVKPSETLSLTCSVSGGSITGYYWSWIRQAPGKGLEWIGFISPGGSARYNPSLKSRVTISKDASTNQVSLRLISVTASDTAVYFCVRDGAAGNNWGYNYYGMDVWGQGTTVTVSS
VL: DIQLTQSPSTLSASIGDRVTITCRASQSISVWLAWYQQKPGKAPNLLIYRASTLDSGVPSRFSGSGSGTEFTLTISSLQPDDLGTYYCQHYDTPSRTFGPGTKVEIT
B12: c5275 (antibody, V domains shown)
VH: QGQLVESGGGVVQPGTSLRLSCKASGFSFSNHVMHWVRQAPGKGLEWVAAIWDDGSNQYYRDSVKGRFTISRDNSKNTLFLQMSSLTVQDTAIYFCARRMSAVGTIFAYFNYGMDVWGRGTTVIVSS
VL: EVVLTQSPGTLSLSPGERGTLSCRASQHLSDSSLAWYQQKPGQAPRLLIYAASRRATGIPDRFSGSGSGTDFTLTISRLDPDDFAVYYCQHYGNSPVITFGQGTRLDIK
B13: c7488 (antibody, V domains shown)
VH: QVRLEQWGGGLLKPSETLSLTCAAWDDNFHRYHWTWVRQFPGGRLQWIGQCEPFGAIKSNPSLGGRAGLSLDDSLRRFILTLRSLNVADTGVYFCVRGPERFHQPHFYYQGLGLWGPGSPVIVSS
VL: DVELTQSPLSLSVNPGESVSLFCRSTESLRNANGHDYLDWYVQKPGQSPQILIFLGSGRASGLPDRITASGSGSAFTLRIDKVEADDVGVYYCMQSIQLPRTFGQGTRLEIK
B14: c9488 (antibody, V domains shown)
VH: QVQLVQSGSEVKKPGASVKVSCKASDYTFPNFGISWLRQAPGQGLEWMGWIRGSDGETNYAQKFKDRVTLTTERSRGTAYMELRSLISDDTAVYYCARDLKWDCSKRGCPDYQWFDIWGQGTLVTVSS
VL: DVVMTQSPLSLPVTLGQPASISCISSHSLVYTDGNTYLAWFQQRPGQSPRRLIYTVSKRDSGVPDRFSGSGSGTDFTLKISRVEAEDVGIYFCMQGRHWPYTFGQGTTLEIK
B15: c2518 (antibody, V domains shown)
VH: QVRLHQWGEGLLRPSDTLTLSCSLSGNVFYNTFFNWVRQSPGRGLEWIAEVSFAGEWTFNPSLRSRVTTQVDGFTYRVSLFLKSMTAADAGVYYCASGGGSFDVDSWGPGIRVTVSS
VL: EIVLTQTPLSSPVSLGQSASISCRSSQSLRHNNGNTYLSWFQQRPGQPPRLLIRKISDRFSGVPNRFSGSGAGTDFTLRIDRVEPEDVGTYYCLQATQFPWTFGQGTTVDIK
B16: c5338 (antibody, V domains shown)
VH: HVRLEQWGPGLLKPSETLSLSCVVHGESFDPYSWTWIRQSPKMGPQWLGEIRPFGETVYNPSLSGRLSLSRDNSKRLISLRLTSVSAADSAVYFCARGPVIYEVPYFWYRGLNVWGPGTTVVVST
VL: DVVVTQSPLSVSVTPGESATILCKSSHSLRHDNGMHYLDWYLQKPGQSPQLLIYLSSNRASGVPDRFIGSGSGTDFTLKISRVEAEDVGMYFCMQGRQDPRIFGRGTRLEIK
B17: c9497 (antibody, V domains shown)
VH: QVQLVQSGAEVKKPGSSVKVSCKASGGSFSDYGISWVRQAPGQGLEWMGGIIPGLETTKFAQGLQGRLTMTADESSTTAYMVLTRLRSQDTAVYYCATTGQQNDYYSSGTSYKLNYYFGMDVWGQGTTVTVSS
VL: QSVLTQPPSSSGTPGQRVTITCSGGSSNIETNSVNWYQQLPGAAPKTVISATHQRPSGVPDRFSASKSGASASLAISGLQSEDEADYYCAVWDDSLHAWVFGGGTKVTVL
B18: c1174 (antibody, V domains shown)
VH: QVRLHQWGEGLLRPSDTLSLTCSLSGNVFYRTFFNWIRQSPGKGLEWIAEVSFTGDWTYNPSLKSRVTTYVDGFKYHVSLQMSSMTAADAGVYYCASGGGSFDVDSWGQGIRVTVSS
VL: EIVLTQTPLSSSVTLGQSASISCRSSQSLQHSNGNTYLSWFQQRPGQPPRLLIRKISNRFSEVPDRFSGSGSGTDFTLTIDRVEPEDVGTYYCVQATQFPWTFGQGTTVDIT
B19: c1134 (antibody, V domains shown)
VH: B18 VH with R31E, T54A, T58N, V78A, S97A, D105H
VL: B18 VL with T7A, S18A, R24T, S26N, Q27H, F60G, E62G, D75H
B20: c5392 (antibody, V domains shown)
VH: ELQLKESGPGLVKPSETLSLTCAVSGGPMCADWCFYYHWNWVRLSAEKGLEWMGRIHISGTAEYNPSFKGRATISLDISKNELSLTMTSLAAADTAVYFCARSGGNFHPTYFYMMDIWGRGTTVVVSS
VL: DIQMTQSPSTLYASLGETVTITCRASQNIKKWLAWYQMRPGRAPRLLIYMATYRHDADSARYIGSESGGEFTLTIKSLRPDDFGTFYCQQYGAQPWTFGQGTRLEVK
B21: c10833 (antibody, V domains shown)
V domain 1: EVRLDQSGAEMRKPGTSVRLSCTVSGHTTNDFFIHWVKQDPQRGPLWMGLINVEDENVIYAEEFQGRISIVADSSKTTVFLDLSHLTFEDTALYLCTTHTLEKETGDYVAAFDSWGQGTFLSVSS
V domain 2: QSVLTQPPSVSAVPGQKVIISCSGRTSNIGTNFVSWYQQFPGAAPKLLIYDTFHRPSGISDRFSASKSDTSATLAITALQPGDEAEYYCGSWDSGLNPAVFVFGSGTRVFVL

What follows are binders tested against HIV-1 NL4-3 Env on infected cells (HIV-1 group M subtype B, NL4-3 (pNL4-3 …, strain)).
B1: binds. B2: binds. B3: binds. B4: binds. B5: binds. B6: binds. B7: binds. B8: binds. B9: binds. B10: binds. B11: binds. B12: binds. B13: binds. B14: binds. B15: binds. B16: binds. B17: binds. B18: binds. B19: binds. B20: binds. B21: binds.
